“And” between values parts separate entries of the source, which are not always exact repeats. Equal entries are not always repeated.
T1: full-length murine LRRC8A (homomeric hexameric channel) (mouse), Q80WG5
T1 chain: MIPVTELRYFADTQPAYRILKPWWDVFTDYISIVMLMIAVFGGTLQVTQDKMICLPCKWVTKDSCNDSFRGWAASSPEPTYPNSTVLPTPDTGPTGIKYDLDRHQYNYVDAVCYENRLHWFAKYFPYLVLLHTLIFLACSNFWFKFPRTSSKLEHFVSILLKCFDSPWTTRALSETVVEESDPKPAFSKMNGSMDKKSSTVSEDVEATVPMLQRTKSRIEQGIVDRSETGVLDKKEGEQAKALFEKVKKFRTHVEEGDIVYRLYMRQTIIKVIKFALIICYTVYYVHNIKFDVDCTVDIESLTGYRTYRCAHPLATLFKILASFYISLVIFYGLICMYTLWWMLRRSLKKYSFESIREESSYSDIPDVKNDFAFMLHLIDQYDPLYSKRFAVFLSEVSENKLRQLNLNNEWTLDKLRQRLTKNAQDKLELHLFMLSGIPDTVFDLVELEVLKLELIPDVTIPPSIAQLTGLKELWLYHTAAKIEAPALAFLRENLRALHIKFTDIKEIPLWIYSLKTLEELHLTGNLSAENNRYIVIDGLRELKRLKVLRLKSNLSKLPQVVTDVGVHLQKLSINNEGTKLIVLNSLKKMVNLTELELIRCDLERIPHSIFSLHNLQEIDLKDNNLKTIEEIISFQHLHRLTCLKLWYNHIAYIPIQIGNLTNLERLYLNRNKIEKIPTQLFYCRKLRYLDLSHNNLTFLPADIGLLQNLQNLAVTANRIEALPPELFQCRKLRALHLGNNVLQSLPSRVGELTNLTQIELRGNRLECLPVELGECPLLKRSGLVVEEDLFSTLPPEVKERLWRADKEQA

B1: sybody Sb4^LRRC8A (VHH)
VHH: QVQLVESGGGSVQAGGSLRLSCAASGYIYQIEYLGWFRQAPGKEREGVAALATWNGQTYYADSVKGRFTVSLDNAKNTVYLQMNSLKPEDTALYYCAAAYEGDTSPLYYEEYGYWGQGTQVTVSA
notes: convex library; Synthetic nanobody selected by ribosome and phage display against full-length LRRC8A; For electrophysiology expressed in HEK293 cells with C-terminal Venus-myc-SBP; source: E. coli MC1061, periplasmic expression, purified (Ni-NTA, SEC on Superdex 75)
B2: sybody Sb5^LRRC8A (VHH)
VHH: QVQLVESGGGLVQAGGSLRLSCAASGFPVAQEIMTWYRQAPGKEREWVAAISSIGDTTAYADSVKGRFTISRDNAKNTVYLQMNSLKPEDTAVYYCAVNVGFTYKGQGTQVTVSA
notes: concave library; Synthetic nanobody selected by ribosome and phage display against full-length LRRC8A; For electrophysiology expressed in HEK293 cells with C-terminal Venus-myc-SBP; source: E. coli MC1061, periplasmic expression, purified (Ni-NTA, SEC on Superdex 75)
B3: sybody Sb2^LRRC8A (VHH)
VHH: QVQLVESGGGLVQAGGSLRLSCAASGFPVYQAWMWWYRQAPGKEREWVAAIESEGQYTWYADSVKGRFTISRDNAKNTVYLQMNSLKPEDTAVYYCNVKDTGHTTNQYDYWGQGTQVTVSA
notes: loop library; Synthetic nanobody selected by ribosome and phage display against full-length LRRC8A; For electrophysiology expressed in HEK293 cells with C-terminal Venus-myc-SBP; source: E. coli MC1061, periplasmic expression, purified (Ni-NTA, SEC on Superdex 75)
B4: full-length murine LRRC8A (homomeric hexameric channel), Q80WG5 1-810 (natural protein)
chain: T1 chain
B5: sybody Sb1^LRRC8A (VHH)
VHH: QVQLVESGGGLVQAGGSLRLSCAASGFPVGRHFMYWYRQAPGKEREWVAAIYSYGEYTEYADSVKGRFTISRDNAKNTVYLQMNSLKPEDTAVYYCYVYVGNEYWGQGTQVTVSA
notes: residues 1-116 modelled; concave library; Synthetic nanobody selected by ribosome and phage display against full-length LRRC8A; N-terminal pelB leader for periplasmic expression; For electrophysiology also expressed in HEK293 cells with C-terminal Venus-myc-SBP; source: E. coli MC1061, periplasmic expression, purified (Ni-NTA, SEC on Superdex 75)
B6: sybody Sb3^LRRC8A (VHH)
VHH: QVQLVESGGGLVQAGGSLRLSCAASGFPVMNAGMYWYRQAPGKEREWVAAIESEGTSTYYADSVKGRFTISRDNAKNTVYLQMNSLKPEDTAVYYCNVKDVGDNHFPYDYWGQGTQVTVSA
notes: residues 1-120 modelled; loop library; Synthetic nanobody selected by ribosome and phage display against full-length LRRC8A; For electrophysiology expressed in HEK293 cells with C-terminal Venus-myc-SBP; source: E. coli MC1061, periplasmic expression, purified (Ni-NTA, SEC on Superdex 75)

Key:
[1] = target: T2, full-length murine LRRC8A (homomeric hexameric channel) (mouse, UniProt Q80WG5); assay: cell-based or functional assay
[2] = target: T3, LRR domain of LRRC8A (soluble cytoplasmic leucine-rich repeat domain of mouse LRRC8A) (Mus musculus, UniProt Q80WG5, chemically biotinylated with amine-reactive NHS-PEG4-Biotin for ELISA and SPR); assay: SPR; Biacore T100; chemically biotinylated LRR domain immobilised on streptavidin chip (~100 RU), sybody as analyte; 20 °C, 10 mM HEPES pH 7.4, 150 mM NaCl, 0.5 mM EDTA, 0.05% Tween 20; multi-cycle kinetics (Sb1, Sb3, Sb4, Sb5) or single-cycle kinetics (Sb2); 1:1 binding model; details: both partners purified
T3 construct: LRR domain of mouse LRRC8A, residues 398-810 of NP_808393.1; Used without biotin in SEC and biotinylated in SPR and ELISA; also called LRRC8A-cytosolic domain (LRR); LRRC8A-LRR domain; not shown: SBP, N-terminal, cleaved; myc, N-terminal, cleaved

[3] = target: T2, full-length murine LRRC8A (homomeric …); assay: cryo-EM structure; sybody added to purified full-length LRRC8A at a molar ratio sybody/LRRC8A monomer of 1.25-1.5 (0.5 for Sb4_(0.5)), no further chromatography; C3 symmetry imposed; details: both partners purified
[4] = target: T1, full-length murine LRRC8A (homomeric …); assay: as above; details: remark: other sources report otherwise

Binder	endogenous VRAC current density in HEK293 cells expressing Sb4 compared to non-transfected cells, whole-cell patch clamp, 125 mM (about 50% increase) and 175 mM intracellular salt [1] [fold increase]	Kd [2]	koff [2]	endogenous VRAC current density in HEK293 cells expressing Sb5 compared to non-transfected cells, whole-cell patch clamp, 125 mM (about 50% increase) and 175 mM intracellular salt [1] [fold increase]	stoichiometry N [3]	stoichiometry N [4] [subunits]	current density of endogenous VRAC in HEK293 cells, whole-cell patch clamp, 125 mM intracellular salt, 1 µM Sb1 in the pipette solution [1] [fold reduction]
B1	~5	27 nM and 17 nM	0.064 s⁻¹	–	–	–	–
B2	–	175 nM and 170 nM	0.199 s⁻¹ and 0.242 s⁻¹	~2.3	–	–	–
B3	–	35 nM and 60 nM	0.003 s⁻¹	–	6 sybodies per hexameric channel	–	–
B4	–	–	–	–	–	6	–
B5	–	24 nM and 22 nM	0.03 s⁻¹ and 0.037 s⁻¹	–	6 sybodies per hexameric channel	–	~4
B6	–	800 nM and 913 nM	0.104 s⁻¹ and 0.113 s⁻¹	–	6 sybodies per hexameric channel	–	–

From article PMC8440666, “Allosteric modulation of LRRC8 channels by targeting their cytoplasmic domains” (Nature Communications, 2021)
